Measured values: PMC4399878, “Probing the Run-On Oligomer of Activated SgrAI Bound to DNA”

Columns and labels:
SgrAI wild type [1] = target: T1, SgrAI wild type (UniProt Q9F6L0 1-339); experiment: fluorescence anisotropy; 10 mM Ca2+; 20 mM Tris-HOAc pH 8.0 (RT), 50 mM KOAc, 10 mM Ca(OAc)2 (or Mg(OAc)2), 1 mM DTT, 4 C for anisotropy and gel run; 10% glycerol for EMSA and R131A/R134A, none for wild type with 40-mers; settings: protein: recombinant, tags: none (untagged wild type; a C-terminal 6xHis version was also made), chain copies: 2
T1 sequence: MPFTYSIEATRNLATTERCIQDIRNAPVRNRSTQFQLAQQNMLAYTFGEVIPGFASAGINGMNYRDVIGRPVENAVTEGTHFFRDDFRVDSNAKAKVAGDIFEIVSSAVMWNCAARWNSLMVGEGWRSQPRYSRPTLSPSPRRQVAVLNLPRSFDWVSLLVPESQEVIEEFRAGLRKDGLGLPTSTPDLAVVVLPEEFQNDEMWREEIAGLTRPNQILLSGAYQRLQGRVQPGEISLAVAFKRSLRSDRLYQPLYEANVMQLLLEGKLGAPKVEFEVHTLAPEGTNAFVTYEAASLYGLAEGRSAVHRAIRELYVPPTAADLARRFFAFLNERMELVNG

SgrAI wild type [2] = target: T1, SgrAI wild type; experiment: fluorescence anisotropy; 10 mM Mg2+; 20 mM Tris-HOAc pH 8.0 (RT), 50 mM KOAc, 10 mM Ca(OAc)2 (or Mg(OAc)2), 1 mM DTT, 4 C for anisotropy and gel run; 10% glycerol for EMSA and R131A/R134A, none for wild type with 40-mers; settings: protein: recombinant; tags: none (untagged wild type; a C-terminal 6xHis version was also made); chain copies: 2; label: 5' Hex (Methods)
SgrAI A57E = target: T2, SgrAI A57E (UniProt Q9F6L0 1-339, A57E); experiment: EMSA; 10 mM Ca2+; 20 mM Tris-HOAc pH 8.0 (RT), 50 mM KOAc, 10 mM Ca(OAc)2 (or Mg(OAc)2), 1 mM DTT, 4 C for anisotropy and gel run; 10% glycerol for EMSA and R131A/R134A, none for wild type with 40-mers; settings: protein: recombinant; chain copies: 2; label: 5' 32P (S56E, A57E) or 5' fluorescein on top strand (R131A, R134A)
T2 sequence: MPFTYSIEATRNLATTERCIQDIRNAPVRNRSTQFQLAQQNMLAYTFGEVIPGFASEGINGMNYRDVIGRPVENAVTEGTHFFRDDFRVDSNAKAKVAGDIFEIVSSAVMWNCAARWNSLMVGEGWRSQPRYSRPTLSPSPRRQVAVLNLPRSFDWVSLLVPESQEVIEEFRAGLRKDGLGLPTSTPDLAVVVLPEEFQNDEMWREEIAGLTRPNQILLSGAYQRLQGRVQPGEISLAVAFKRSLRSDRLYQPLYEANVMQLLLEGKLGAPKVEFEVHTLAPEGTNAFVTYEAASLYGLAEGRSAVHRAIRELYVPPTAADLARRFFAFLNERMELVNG

SgrAI S56E = target: T3, SgrAI S56E (UniProt Q9F6L0 1-339, S56E); experiment: as above; settings: protein: recombinant; chain copies: 2; label: 5' 32P (S56E, A57E) or 5' fluorescein on top strand (R131A, R134A)
T3 sequence: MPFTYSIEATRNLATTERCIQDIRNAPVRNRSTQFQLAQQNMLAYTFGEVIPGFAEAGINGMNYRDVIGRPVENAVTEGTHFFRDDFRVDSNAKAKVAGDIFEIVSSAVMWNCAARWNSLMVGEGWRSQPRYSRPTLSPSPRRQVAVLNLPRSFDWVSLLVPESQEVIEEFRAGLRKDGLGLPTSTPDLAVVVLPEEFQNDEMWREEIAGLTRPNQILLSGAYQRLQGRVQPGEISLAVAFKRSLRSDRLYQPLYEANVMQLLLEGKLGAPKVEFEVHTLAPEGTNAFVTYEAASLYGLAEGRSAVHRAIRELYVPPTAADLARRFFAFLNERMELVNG

SgrAI R131A = target: T4, SgrAI R131A (UniProt Q9F6L0 1-339, R131A); experiment: fluorescence anisotropy; 10 mM Ca2+; 20 mM Tris-HOAc pH 8.0 (RT), 50 mM KOAc, 10 mM Ca(OAc)2 (or Mg(OAc)2), 1 mM DTT, 4 C for anisotropy and gel run; 10% glycerol for EMSA and R131A/R134A, none for wild type with 40-mers; settings: protein: recombinant; chain copies: 2; label: 5' 32P (S56E, A57E) or 5' fluorescein on top strand (R131A, R134A)
T4 sequence: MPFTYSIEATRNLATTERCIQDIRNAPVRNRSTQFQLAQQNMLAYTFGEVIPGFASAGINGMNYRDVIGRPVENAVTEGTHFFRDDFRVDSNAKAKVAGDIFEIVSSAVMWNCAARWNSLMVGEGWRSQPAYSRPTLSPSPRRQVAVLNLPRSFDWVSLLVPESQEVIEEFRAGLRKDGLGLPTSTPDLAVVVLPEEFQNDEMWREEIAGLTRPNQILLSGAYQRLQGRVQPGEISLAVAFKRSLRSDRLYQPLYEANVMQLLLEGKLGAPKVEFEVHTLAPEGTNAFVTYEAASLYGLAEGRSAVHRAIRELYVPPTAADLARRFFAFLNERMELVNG

SgrAI R134A = target: T5, SgrAI R134A (UniProt Q9F6L0 1-339, R134A); experiment: as above; settings: protein: recombinant; chain copies: 2; label: 5' 32P (S56E, A57E) or 5' fluorescein on top strand (R131A, R134A)
T5 sequence: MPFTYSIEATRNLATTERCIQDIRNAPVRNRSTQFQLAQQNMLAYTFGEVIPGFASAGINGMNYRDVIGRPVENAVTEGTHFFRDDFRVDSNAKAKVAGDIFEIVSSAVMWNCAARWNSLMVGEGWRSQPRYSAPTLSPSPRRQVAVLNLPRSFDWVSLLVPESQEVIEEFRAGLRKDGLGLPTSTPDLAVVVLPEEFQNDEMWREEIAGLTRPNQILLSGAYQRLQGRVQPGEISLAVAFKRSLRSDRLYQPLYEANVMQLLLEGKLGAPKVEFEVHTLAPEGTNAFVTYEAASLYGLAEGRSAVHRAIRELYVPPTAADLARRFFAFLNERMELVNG

[3] = label: 5' fluorescein on top strand

B1: 40-2A (dsDNA)
DNA 1: GATGCGTGGGTCTTCACACCGGGGGTCTGCTCAAAATGAG
DNA 2: CTCATTTTGAGCAGACCCCCGGTGTGAAGACCCACGCATC
Kd (SgrAI wild type [1]; [3]): 27 ± 2 nM

B2: 40-NCTA (40-NC-TA) (dsDNA)
DNA 1: GATGCGTGGGTCTTCACTCCGGAGGTCTGCTCAAAATGAG
DNA 2: CTCATTTTGAGCAGACCTCCGGAGTGAAGACCCACGCATC
Kd (SgrAI wild type [1]; label: 5' Hex (Methods)): 0.5 ± 0.1 nM
Kd (SgrAI wild type [2]): 2.8 ± 0.5 nM

B3: 40-2B (dsDNA)
DNA 1: GATGCGTGGGTCTTCACACCGGTCGTCTGCTCAAAATGAG
DNA 2: CTCATTTTGAGCAGACGACCGGTGTGAAGACCCACGCATC
Kd (SgrAI wild type [1]; [3]): 17 ± 3 nM

B4: PC DNA (dsDNA)
DNA 1: GATGCGTGGGTCTTCACA
DNA 2: CCGGTGTGAAGACCCACGCATC
Kd (SgrAI A57E): 5 ± 2 nM
Kd (SgrAI S56E): 0.26 ± 0.02 nM
Kd (SgrAI R131A): 60 ± 20 nM
Kd (SgrAI R134A): 13 ± 6 nM
